The source of these data is patent publication US20160289331A1 (NATIONAL UNIVERSITY CORP HOKKAIDO UNIVERSITY, published 2016).

In experiment [1] the target is mDR6 expressed on mouse T cells (DO11.10-T cells, splenocytes) (mouse) (UniProt Q9EPU5). Nature of the experiment: cell-based or functional assay.
The target in experiment [2] is T1, mouse Sdc1 (mSdc1) expressed on cells (mouse, UniProt P18828 18-311, heparan sulfate is bound at position 45 and position 47).
T1 construct: On DO11.10-T or A20 cells transformed with pMXsIG/mSdc1, and endogenous on A20 cells (shRNA experiment); also called mouse syndecan-1; CD138
T1 sequence: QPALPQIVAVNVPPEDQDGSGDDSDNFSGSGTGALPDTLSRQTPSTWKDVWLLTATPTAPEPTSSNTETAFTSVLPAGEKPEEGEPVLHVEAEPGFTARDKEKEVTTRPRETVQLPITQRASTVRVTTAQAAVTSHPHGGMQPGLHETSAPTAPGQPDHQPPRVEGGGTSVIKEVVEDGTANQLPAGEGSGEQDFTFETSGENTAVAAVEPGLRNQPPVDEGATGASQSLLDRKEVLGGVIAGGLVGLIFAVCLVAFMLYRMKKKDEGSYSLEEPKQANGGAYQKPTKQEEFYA
Description: binding of labeled Fc fusions to DO11.10-T cells expressing mSdc1. An excerpt:
An expression vector (pMXsIG/mSdc1) into which a gene encoding mSdc1 (SEQ ID NO: 7) was incorporated in an expressible manner, and a control vector (pMXsIG) were introduced into DO11.10-T cells to prepare transformed cells. Binding abilities of these two kinds of transformed cells to labeled mDR6-hFcm and to labeled mDR6-hFcm deltaCRD1 was examined, and it was confirmed that binding ability of mDR6-hFcm deltaCRD1 increased to about 2.5 times of that of mDR6-hFcm (FIG. 22).

In turn, mSdc1-His (ligand) yielded an IL2 production level of DO11.10-T cells stimulated with anti-CD3 antibody, mSdc1-His at final concentration 100 nM in experiment [1] of 50%.

B1: mDR6-hFcm deltaCRD1 (Fc fusion)
chain: QPEQKTLSLPGTYRHVDRTTGQVLCHDCSQPCPWPMIERLPCAALTDRECICPPGMYQSNGTCAPHTVCPVGWGVRKKGTENEDVRCKQCARGTFSDVPSSVMKCKAHTDCLGQNLEVVKPGTKETDNVCGMRLFFSSTNPPSSGTVTFSHPEHMESHDVPSSTYEPQGMNSTDSNSTASVRTKVPSGIEEGTVPDNTSSTSGKEGTNRTLPNPPQVTHQQAPHHRHILKLLPSSMEATGEKSSTAIKAPKRGHPRQNAHKHFDINEHL
modifications: labeled
notes: Derived from pcDNA/mDR6-hFcm; the Fc part is that of mDR6-hFcm; also called CRD1-deficient solubilized DR6 mutant; cysteine rich domain-deficient mDR6 mutant; not shown: human IgG Fc region
For the molecule B1, the “binding ability relative to mDR6-hFcm” value in experiment [2] is around 2.5 times.
